Laboratory results published in article PMC5606208.

Assays:
[1] = molecular target: Phos-HP1α (HP1α co-expressed with CKII, phosphorylated in the N-terminus and hinge) (human); assay: native MS
[2] = molecular target: WT HP1α (human heterochromatin protein 1 alpha, unmodified) (human); assay: AUC

stoichiometry N [1]	Kd [2] [nM]	Substance
2	–	Phos-HP1α (HP1α co-expressed with CKII, phosphorylated in the N-terminus and hinge) (natural protein)
–	1120	WT HP1α (human heterochromatin protein 1 alpha, unmodified) (natural protein)
